Numbering of substitutions follows the chain as printed.
T1: Fusion protein of extracellular domain of human TIGIT and mouse IgG2a Fc fragment (human TIGIT ECD-mFc) (human)
T1 construct: The entry includes the signal peptide (limits not recoverable) and the mouse IgG2a Fc
T1 chain: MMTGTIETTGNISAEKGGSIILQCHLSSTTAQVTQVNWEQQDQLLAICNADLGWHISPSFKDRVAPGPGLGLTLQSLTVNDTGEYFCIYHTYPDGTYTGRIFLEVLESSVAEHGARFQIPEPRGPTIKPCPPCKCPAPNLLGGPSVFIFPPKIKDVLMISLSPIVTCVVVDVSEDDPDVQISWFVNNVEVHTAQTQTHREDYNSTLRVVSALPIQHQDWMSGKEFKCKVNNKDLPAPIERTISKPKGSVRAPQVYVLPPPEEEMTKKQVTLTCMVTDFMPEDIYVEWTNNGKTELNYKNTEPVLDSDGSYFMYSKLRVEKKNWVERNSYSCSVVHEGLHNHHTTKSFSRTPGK

T2: Full-length human TIGIT on CHO-K1 cells (CHO-K1 human TIGIT) (human, UniProt Q495A1 22-244)
T2 construct: NCBI XP_024309156.1; the entry includes the signal peptide (limits not recoverable); The strain (high, medium, low) is named under assay; also called high expression strain 1D2; medium expression strain 2D10
T2 sequence: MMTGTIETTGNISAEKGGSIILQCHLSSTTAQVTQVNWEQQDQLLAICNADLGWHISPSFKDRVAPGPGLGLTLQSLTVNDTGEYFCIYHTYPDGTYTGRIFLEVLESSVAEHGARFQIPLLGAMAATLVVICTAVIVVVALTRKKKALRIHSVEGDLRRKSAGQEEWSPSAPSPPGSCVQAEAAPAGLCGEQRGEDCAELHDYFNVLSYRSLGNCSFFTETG

T3: Fusion protein of extracellular domain of human TIGIT and His-tag (human TIGIT ECD-his) (human)
T3 chain: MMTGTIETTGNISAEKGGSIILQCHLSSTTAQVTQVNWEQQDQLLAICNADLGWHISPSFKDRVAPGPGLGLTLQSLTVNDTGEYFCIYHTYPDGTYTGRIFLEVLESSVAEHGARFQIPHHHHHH

B1: TIGIT-070-H3L1 (antibody, V domains shown)
VH: EVQLVQSGAEVKKPGASVKVSCKASGYTFTNYYMHWVRQAPGQGLEWMGRIDPDSGGSKYNEKFKSRVTITVDKLSSTAYMELSSLRSEDTAVYYCAREGHYGFYSDYWGQGTTVTVSS
VL: DIQMTQSPSSLSASVGDRVTITCRVSENIYSYLAWYQQKPGKSPKLLIYNAKTLAEGVPSRFSGSGSGTDFTLTISSLQPEDFATYYCQHHYGNPLTFGPGTKVDIK
notes: Humanized anti-TIGIT antibody
B2: TIGIT-070-H2L3 (antibody, V domains shown)
VH: B1 VH with G44R
VL: DIVMTQSPDSLAVSLGERATINCRVSENIYSYLAWYQQKPGQSPKLLVYNAKTLAEGVPDRFSGSGSGTDFTLTISSLQAEDVAVYYCQHHYGNPLTFGPGTKVDIK
notes: Humanized anti-TIGIT antibody
B3: TIGIT-070-H3L2 (antibody, V domains shown)
VH: B1 VH
VL: B1 VL with I48V
notes: Humanized anti-TIGIT antibody
B4: TIGIT-070-H3L3 (antibody, V domains shown)
VH: B1 VH
VL: B2 VL
notes: Humanized anti-TIGIT antibody
B5: TIGIT-070-H1L3 (antibody, V domains shown)
VH: B1 VH with G44R, L75S, S76A
VL: B2 VL
notes: Humanized anti-TIGIT antibody

Each binder was assayed against T4, Full-length cynomolgus monkey TIGIT on CHO-K1 cells (CHO-K1 cynomolgus monkey TIGIT) (cynomolgus monkey) (assay: cell binding, CHO-K1 cynomolgus monkey TIGIT).
T4 construct: NCBI XP_015300911.1
T4 sequence (chain, as listed by the source limits assumed): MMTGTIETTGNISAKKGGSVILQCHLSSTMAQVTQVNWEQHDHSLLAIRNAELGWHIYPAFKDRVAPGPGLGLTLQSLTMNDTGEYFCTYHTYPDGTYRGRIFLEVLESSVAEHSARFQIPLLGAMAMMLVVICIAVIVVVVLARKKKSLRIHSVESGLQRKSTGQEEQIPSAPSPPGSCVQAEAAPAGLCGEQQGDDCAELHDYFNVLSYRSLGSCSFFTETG
Procedure, shortened: (§1)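 Binding was measured by flow cytometry after a 60-minute, 4° C incubation of the antibodies with 2×10⁵ CHO-K1 cells displaying full-length human or cynomolgus monkey TIGIT. Antibody titration: 12 points, threefold serial dilution from 80 nM, in 1% BSA-PBS.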

Row | Binder | EC50
1 | B1 | 0.0741 nM
2 | B2 | 0.0774 nM
3 | B3 | 0.0665 nM
4 | B4 | 0.0556 nM
5 | B5 | 0.112 nM

Molecular target: T1, Fusion protein of extracellular domain …
Assay: ELISA, human TIGIT ECD-mFc
Procedure, shortened: (§2)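 Plates blocked with 5% skim milk-PBS at 37° C for 2-4 h. Test antibodies applied as a 12-point 3-fold series from 13 nM for 1.5-2 h at 37° C. Read-out: HRP secondary (1:5000, 1 h, 37° C), TMB colour for 7-10 min at room temperature, acid stop, absorbance at OD450 nm.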

Row | Binder | EC50
6 | B1 | 0.0131 nM
7 | B2 | 0.0119 nM
8 | B3 | 0.0143 nM
9 | B4 | 0.0151 nM
10 | B5 | 0.0148 nM

These binders were tested against T5, Fusion protein of extracellular domain of cynomolgus monkey TIGIT and mouse IgG2a Fc fragment (cynomolgus … (cynomolgus monkey)) (assay: ELISA, cynomolgus monkey TIGIT ECD-mFc).
T5 construct: The entry includes the signal peptide (limits not recoverable) and the mouse IgG2a Fc
T5 sequence (chain, as listed by the source limits assumed): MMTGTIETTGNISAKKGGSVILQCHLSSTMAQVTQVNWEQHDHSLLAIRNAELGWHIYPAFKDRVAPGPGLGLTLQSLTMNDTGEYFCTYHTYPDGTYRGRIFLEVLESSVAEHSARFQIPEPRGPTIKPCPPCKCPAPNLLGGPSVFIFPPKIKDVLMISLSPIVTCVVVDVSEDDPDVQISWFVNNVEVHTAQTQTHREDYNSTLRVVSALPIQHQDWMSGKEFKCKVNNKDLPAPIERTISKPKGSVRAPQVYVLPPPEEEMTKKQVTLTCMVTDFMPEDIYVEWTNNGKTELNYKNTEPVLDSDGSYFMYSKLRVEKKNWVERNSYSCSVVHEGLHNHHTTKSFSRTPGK
Procedure, shortened: as §2

Row | Binder | EC50
11 | B1 | 0.0139 nM
12 | B2 | 0.0119 nM
13 | B3 | 0.0157 nM
14 | B4 | 0.0142 nM
15 | B5 | 0.0137 nM

The binders below were run against T6, Fusion protein of extracellular domain of human TIGIT and human IgG1 Fc fragment (human TIGIT ECD-hFc) (human) (assay: blocking of TIGIT ECD-hFc binding to CHO-K1 CD155 cells).
T6 construct: The entry includes the signal peptide (limits not recoverable) and the human IgG1 Fc
T6 sequence (chain, as listed by the source limits assumed): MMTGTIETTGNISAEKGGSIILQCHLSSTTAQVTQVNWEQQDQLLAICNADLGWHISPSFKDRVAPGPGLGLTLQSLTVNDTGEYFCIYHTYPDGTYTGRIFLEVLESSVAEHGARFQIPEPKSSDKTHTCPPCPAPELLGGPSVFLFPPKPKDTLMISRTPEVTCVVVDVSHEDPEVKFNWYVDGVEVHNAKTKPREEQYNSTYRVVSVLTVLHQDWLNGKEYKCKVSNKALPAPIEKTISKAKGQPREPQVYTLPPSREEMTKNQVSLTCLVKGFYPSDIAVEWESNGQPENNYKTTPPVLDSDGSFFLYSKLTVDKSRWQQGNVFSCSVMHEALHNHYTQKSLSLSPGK
Procedure, shortened: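 The inhibition curves from which IC50 was calculated were generated by cell-based ELISA. Fixed CHO-K1 CD155 cells, blocked with 5% skim milk-PBS, were incubated at 37° C for 1.5-2 h with antibodies that had been premixed for 0.5 h with human TIGIT ECD-hFc at a working concentration of 30 ng/mL. Detection of bound TIGIT used HRP secondary antibody at 1:5000 for 1 h at 37° C, followed by TMB and reading as OD450 nm.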

Row | Binder | IC50
16 | B1 | 0.463 nM
17 | B2 | 0.35 nM
18 | B3 | 0.423 nM
19 | B4 | 0.417 nM
20 | B5 | 0.445 nM

These binders were tested against T2, Full-length human TIGIT on CHO-K1 cells … (assay: cell binding, CHO-K1 human TIGIT high expression strain).
Procedure, shortened: as §1

Row | Binder | EC50
21 | B1 | 0.0132 nM
22 | B2 | 0.0209 nM
23 | B3 | 0.0276 nM
24 | B4 | 0.03 nM
25 | B5 | 0.024 nM

Molecular target: T3, Fusion protein of extracellular domain …
Assay: BIAcore; KD ratio to TIGIT-CHI-070

Row | Binder | Fold change vs chimeric antibodies (KD)
26 | B1 | 1.23 fold
27 | B2 | 0.77 fold
28 | B3 | 1.32 fold
29 | B4 | 1.17 fold
30 | B5 | 0.74 fold

Molecular target: T3, Fusion protein of extracellular domain …
Assay: BIAcore

Row | Binder | Kd | koff | kon
31 | B1 | 0.121 nM | 0.000152 s⁻¹ | 1.26e+06 M⁻¹ s⁻¹
32 | B2 | 0.0756 nM | 0.000134 s⁻¹ | 1.77e+06 M⁻¹ s⁻¹
33 | B3 | 0.129 nM | 0.000168 s⁻¹ | 1.3e+06 M⁻¹ s⁻¹
34 | B4 | 0.115 nM | 0.000151 s⁻¹ | 1.31e+06 M⁻¹ s⁻¹
35 | B5 | 0.0724 nM | 0.000129 s⁻¹ | 1.78e+06 M⁻¹ s⁻¹

— patent US20240343803A1 (SHANDONG SIMCERE BIOPHARMACEUTICAL, published 2024)
